Data: PMC2173515 (The Journal of Cell Biology, 2003)

Columns and labels:
Assay in all cases: co-IP
[1] = target: T1, Vps27 truncated at residue 524 (yeast, UniProt P40343 1-524)
T1 sequence: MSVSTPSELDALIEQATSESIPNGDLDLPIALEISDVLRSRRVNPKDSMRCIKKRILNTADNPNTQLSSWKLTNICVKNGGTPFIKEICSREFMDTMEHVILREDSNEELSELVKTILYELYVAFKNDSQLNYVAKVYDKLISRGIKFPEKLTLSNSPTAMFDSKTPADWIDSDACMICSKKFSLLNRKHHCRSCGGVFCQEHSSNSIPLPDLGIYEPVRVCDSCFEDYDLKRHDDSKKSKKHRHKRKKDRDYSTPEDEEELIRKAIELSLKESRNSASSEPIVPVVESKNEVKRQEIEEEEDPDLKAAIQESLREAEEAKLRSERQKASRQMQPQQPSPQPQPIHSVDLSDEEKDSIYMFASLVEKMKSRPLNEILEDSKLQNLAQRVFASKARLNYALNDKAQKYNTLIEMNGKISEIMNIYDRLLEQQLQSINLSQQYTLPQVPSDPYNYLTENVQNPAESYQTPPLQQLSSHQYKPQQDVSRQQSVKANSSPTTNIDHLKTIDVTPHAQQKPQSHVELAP

[2] = target: T2, Vps27 truncated at residue 579 (yeast, UniProt P40343 1-579)
T2 sequence: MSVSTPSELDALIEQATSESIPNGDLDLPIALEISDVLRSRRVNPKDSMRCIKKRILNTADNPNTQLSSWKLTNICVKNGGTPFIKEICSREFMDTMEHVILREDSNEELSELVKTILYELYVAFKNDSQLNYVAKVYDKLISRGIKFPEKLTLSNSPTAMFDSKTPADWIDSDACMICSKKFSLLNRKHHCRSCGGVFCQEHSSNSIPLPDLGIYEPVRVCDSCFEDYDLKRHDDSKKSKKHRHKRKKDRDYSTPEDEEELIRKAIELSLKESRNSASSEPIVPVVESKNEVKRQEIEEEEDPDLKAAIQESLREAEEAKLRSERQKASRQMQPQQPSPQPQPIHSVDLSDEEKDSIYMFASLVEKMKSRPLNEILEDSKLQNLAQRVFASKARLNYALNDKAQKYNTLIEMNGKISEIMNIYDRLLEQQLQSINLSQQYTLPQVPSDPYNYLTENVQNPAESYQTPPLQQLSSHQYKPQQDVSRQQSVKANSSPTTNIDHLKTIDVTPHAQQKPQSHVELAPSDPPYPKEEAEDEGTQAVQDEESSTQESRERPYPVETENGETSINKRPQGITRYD

[3] = target: T3, Vps27 truncated at residue 617 (yeast, UniProt P40343 1-617)
T3 sequence: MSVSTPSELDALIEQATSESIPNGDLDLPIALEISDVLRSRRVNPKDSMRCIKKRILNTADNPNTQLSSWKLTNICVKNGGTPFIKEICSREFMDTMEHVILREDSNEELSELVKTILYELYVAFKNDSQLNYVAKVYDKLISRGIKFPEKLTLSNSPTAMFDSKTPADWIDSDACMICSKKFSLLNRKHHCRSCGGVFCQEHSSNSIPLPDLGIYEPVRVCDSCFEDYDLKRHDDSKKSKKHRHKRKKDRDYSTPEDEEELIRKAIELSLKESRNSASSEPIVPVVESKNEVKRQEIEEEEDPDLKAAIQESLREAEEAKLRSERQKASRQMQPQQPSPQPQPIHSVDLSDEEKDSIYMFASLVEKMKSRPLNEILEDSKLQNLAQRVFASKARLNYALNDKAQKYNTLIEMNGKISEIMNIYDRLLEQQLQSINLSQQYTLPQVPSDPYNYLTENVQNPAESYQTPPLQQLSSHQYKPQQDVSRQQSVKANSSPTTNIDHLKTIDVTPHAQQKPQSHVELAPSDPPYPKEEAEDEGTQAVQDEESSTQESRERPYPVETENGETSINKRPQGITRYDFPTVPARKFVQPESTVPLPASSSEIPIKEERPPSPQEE

[4] = target: T4, Vps27 (full-length, wild type) (yeast, UniProt P40343 1-622)
T4 sequence: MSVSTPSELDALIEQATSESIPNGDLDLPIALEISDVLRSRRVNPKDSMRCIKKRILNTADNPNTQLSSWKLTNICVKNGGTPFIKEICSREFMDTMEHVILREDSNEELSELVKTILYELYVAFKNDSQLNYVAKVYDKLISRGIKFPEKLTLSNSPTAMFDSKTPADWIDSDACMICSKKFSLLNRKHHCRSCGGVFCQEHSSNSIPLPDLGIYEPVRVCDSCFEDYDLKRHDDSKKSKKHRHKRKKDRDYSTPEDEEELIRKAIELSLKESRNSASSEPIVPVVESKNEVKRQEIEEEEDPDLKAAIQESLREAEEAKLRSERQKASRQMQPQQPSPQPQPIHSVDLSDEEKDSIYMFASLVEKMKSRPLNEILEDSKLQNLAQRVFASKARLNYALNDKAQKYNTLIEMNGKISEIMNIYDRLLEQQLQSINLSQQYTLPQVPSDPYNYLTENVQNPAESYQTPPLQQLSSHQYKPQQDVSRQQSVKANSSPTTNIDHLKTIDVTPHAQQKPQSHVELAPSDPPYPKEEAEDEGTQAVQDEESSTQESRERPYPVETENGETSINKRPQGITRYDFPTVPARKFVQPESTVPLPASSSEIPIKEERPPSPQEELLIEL

[5] = target: T5, Vps27 truncated at residue 485 (yeast, UniProt P40343 1-485)
T5 sequence: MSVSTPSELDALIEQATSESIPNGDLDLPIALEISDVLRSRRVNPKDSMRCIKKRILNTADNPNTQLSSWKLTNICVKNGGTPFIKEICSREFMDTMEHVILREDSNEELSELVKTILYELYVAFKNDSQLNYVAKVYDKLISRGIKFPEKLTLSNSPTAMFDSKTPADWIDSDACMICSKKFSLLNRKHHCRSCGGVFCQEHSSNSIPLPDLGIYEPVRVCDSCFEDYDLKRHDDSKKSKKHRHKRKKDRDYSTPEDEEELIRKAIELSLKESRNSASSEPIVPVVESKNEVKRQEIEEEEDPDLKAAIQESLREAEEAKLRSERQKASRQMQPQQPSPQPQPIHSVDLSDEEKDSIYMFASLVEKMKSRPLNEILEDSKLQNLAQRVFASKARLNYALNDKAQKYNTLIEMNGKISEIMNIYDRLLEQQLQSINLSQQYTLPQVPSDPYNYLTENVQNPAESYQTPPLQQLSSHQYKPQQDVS

Measured: percent of Vps23 co-immunoprecipitated

B1: Vps23-HA (natural protein)
chain: MSANGKISVPEAVVNWLFKVIQPIYNDGRTTFHDSLALLDNFHSLRPRTRVFTHSDGTPQLLLSIYGTISTGEDGSSPHSIPVIMWVPSMYPVKPPFISINLENFDMNTISSSLPIQEYIDSNGWIALPILHCWDPAAMNLIMVVQELMSLLHEPPQDQAPSLPPKPNTQLQQEQNTPPLPPKPKSPHLKPPLPPPPPPQPASNALDLMDMDNTDISPTNHHEMLQNLQTVVNELYREDVDYVADKILTRQTVMQESIARFHEIIAIDKNHLRAVEQAIEQTMHSLNAQIDVLTANRAKVQQFSSTSHVDDEDVNSIAVAKTDGLNQLYNLVAQDYALTDTIECLSRMLHRGTIPLDTFVKQGRELARQQFLVRWHIQRITSPLS
~10%: all assays above
